# Measured values published in paper PMC314469, “Protein Interaction Networks by Proteome Peptide Scanning” (PLoS Biology, 2004).
# B1: YKL214C 57-70 (peptide)
# chain: REEPPLPKRIRISK
# B2: YPR171W 424-437 (peptide)
# chain: QQKPAIPQKKSFLT
# B3: YDR207C 482-495 (peptide)
# chain: QYIPPPPPKYINSK
# B4: YMR016C 219-232 (peptide)
# chain: QTYPAQPPKIGNAF
# B5: YGR268C 24-37 (peptide)
# chain: QSQPPRPPRPAANL
# B6: YOR329C 404-417 (peptide)
# chain: QQLPLEPLKPTATG
# B7: YBL085W 600-613 (peptide)
# chain: QSNPTSPTKQTFTI
# B8: YIR003W 387-400 (peptide)
# chain: RAPPPVPKKPSSRI
# B9: YNL257C 304-317 (peptide)
# chain: QVPPKSPEKSGWLY
# B10: YOR322C 391-404 (peptide)
# chain: QRLPGEPGREQAPN
# B11: YLR169W 91-104 (peptide)
# chain: RSSPWSPSRSHGAV
# B12: YCL014W 878-891 (peptide)
# chain: QRHPKSPVKKPMTS
# B13: YBR108W 543-556 (peptide)
# chain: RAVPILPPRNNVEP
# B14: YLR086W 108-121 (peptide)
# chain: QSPPRSPGRSPTRR
# B15: YJR147W 216-229 (peptide)
# chain: QRQPKRPKRYSLLL
# B16: YKL165C 41-54 (peptide)
# chain: QSTPTPPAKRLFLI
# B17: YGR019W 6-19 (peptide)
# chain: QYYPEEPTKPTVKT
# B18: YFR028C 427-440 (peptide)
# chain: QTSPGQPRKGQNGS
# B19: YJL184W 49-62 (peptide)
# chain: RDKPSEPERTKDGS
# Biological target: T1, Boi1 SH3 (BOI1_YEAST), P38041
# T1 chain: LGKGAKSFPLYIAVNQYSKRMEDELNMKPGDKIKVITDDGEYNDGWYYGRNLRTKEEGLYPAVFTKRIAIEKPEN
# Assay: SPOT array
row,Binder,"normalised SPOT signal, Boehringer light units (BLU); mean over the file's lines of this peptide"
1,B1,2310
2,B2,170
3,B3,122
4,B4,42.7
5,B5,577
6,B6,143
7,B7,62.2
8,B8,129
9,B9,11.9
10,B10,103
11,B11,147
12,B12,123
13,B13,49.7
14,B14,33500
15,B15,117
16,B16,56.9
17,B17,55.2
18,B18,157
19,B19,74.9

# Biological target: T2, Boi2 SH3 (BOI2_YEAST), P39969
# T2 chain: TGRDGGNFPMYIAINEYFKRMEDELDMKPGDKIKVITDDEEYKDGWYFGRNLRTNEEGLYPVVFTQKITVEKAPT
# Assay: SPOT array
row,Binder,"normalised SPOT signal, Boehringer light units (BLU); mean over the file's lines of this peptide"
1,B1,65.9
2,B2,71.9
3,B3,45.9
4,B4,35.1
5,B5,16
6,B6,27.2
7,B7,65.7
8,B8,42
9,B9,22.9
10,B10,14
11,B11,92.9
12,B12,90.5
13,B13,77
14,B14,3450
15,B15,194
16,B16,48.8
17,B17,37.2
18,B18,22.6
19,B19,27.8

# Biological target: T3, Rvs167 SH3 (RV167_YEAST), P39743
# T3 chain: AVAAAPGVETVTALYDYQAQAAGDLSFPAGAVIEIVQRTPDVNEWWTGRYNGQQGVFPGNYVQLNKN
# Assay: SPOT array
row,Binder,"normalised SPOT signal, Boehringer light units (BLU); mean over the file's lines of this peptide"
1,B1,11800
2,B2,42.5
3,B3,112
4,B4,33.9
5,B5,105
6,B6,45.9
7,B7,60.4
8,B8,29.1
9,B9,23.7
10,B10,2.1
11,B11,117
12,B12,192
13,B13,59500
14,B14,906
15,B15,104
16,B16,35.4
17,B17,6.4
18,B18,64
19,B19,24.1

# Biological target: T4, Yfr024 SH3 (LSB3_YEAST), P43603
# T4 chain: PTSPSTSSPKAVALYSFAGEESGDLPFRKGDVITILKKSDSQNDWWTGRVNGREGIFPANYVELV
# Assay: SPOT array
row,Binder,"normalised SPOT signal, Boehringer light units (BLU); mean over the file's lines of this peptide"
1,B1,49100
2,B2,3880
3,B3,393
4,B4,117
5,B5,27400
6,B6,257
7,B7,148
8,B8,28900
9,B9,0
10,B10,61.7
11,B11,2360
12,B12,676
13,B13,38300
14,B14,1890
15,B15,5420
16,B16,1420
17,B17,49.9
18,B18,118
19,B19,112

# Biological target: T5, Yhr016c SH3 (YSC84_YEAST), P32793
# T5 chain: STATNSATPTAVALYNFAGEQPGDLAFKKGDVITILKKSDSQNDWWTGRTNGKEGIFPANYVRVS
# Assay: SPOT array
row,Binder,"normalised SPOT signal, Boehringer light units (BLU); mean over the file's lines of this peptide"
1,B1,50200
2,B2,101
3,B3,81.6
4,B4,263
5,B5,11000
6,B6,122
7,B7,182
8,B8,501
9,B9,117
10,B10,118
11,B11,1090
12,B12,169
13,B13,33600
14,B14,408
15,B15,613
16,B16,146
17,B17,85.8
18,B18,177
19,B19,120
